From patent US12686712B2, “Antibody, related use, pharmaceutical composition including method for diagnosing fungal infections, fungal infection diagnosis kit and method for treating fungal infections” (priority 2020, dated 2026) come the findings set out here.

Assay [1] has as its system C. neoformans (H99). As to the kind of experiment: Indirect ELISA against intact cells using poly-L-Lysine (PL). The format is binding, Cryptococcus neoformans. To be noted: 10^4 and 10^5 cells/ml. The procedure:
For this test, C. neoformans (H99), Candida albicans, Giardia lamblia, human lung line cell A549 (ATCC), Escherichia coli and Staphylococcus aureus. Cells were washed in PBS three times and suspended at 10^7 cell/ml density in poly-L-Lysine (5 μg/ml in PBS) for adherence at night at 4° C. The next day, plates were blocked with PBS/BSA 5% and incubated for 1 hour at 37° C., then they are incubated for 1 hour at 37° C. with anti-chitooligomer AcM at 50 μg/ml concentration and diluted at 5 μg/ml. Then, washing with PBS/Tween 0.05% was performed for 3 times and anti-IgM murine peroxidase was added diluted 1:5000 and incubated for 2 hours at 37° C. Plates were washed again and TMB was added and incubated for 30 minutes at 37° C.
Reaction was stopped with HCl 1 N and reading with spectrophotometer at 450 nm. After this trial, seriated dilutions were performed at density of cells 10^7 until 10 cells/ml to fungi and 10^7 until 10^4 cells/ml to other cellular types and tested of AcM anti-chitooligomer at 25 μg/ml concentration, followed by the same procedures abovementioned. […]
In this trial, 10^7 cell/ml of C. albicans were used to perform an absorbance curve, in which it was observed that there was a 25 μg/ml concentration reliable signal of both AcM, as above such value the curve starts to enter in plateau, as provided in FIG. 9. […]

Assay [2] deals with C. neoformans (H99). As to the kind of experiment: Dot Blot against intact cells using PL. Type of assay: binding, Cryptococcus neoformans. To be noted: AcM 25 μg/ml; cells in 5 μg/ml PL diluted in base 10 from 10^7 cell/ml; 3 independent experiments. As to the method:
C. neoformans (H99) and Candida albicans in 10^7 cell/ml density until 10 cells/ml were suspended in poly-L-Lysine solution (5 μg/ml in PBS) and 10 μl were loaded in nitrocellulose membranes. Then, the same steps for ELISA were followed, however, 25 μg/ml concentration of AcM anti-chitooligomers. Membrane was cut and deposited in 96-well plates, to which 50 μl TMB was added and incubated for 30 minutes at 37° C. Volume was removed and transferred to a new plate, to which stop reaction was added with HCl 1 N and read with spectrophotometer at 450 nm.
The principle used in this trial was the same of ELISA and was based on the load presented by fungi. As nitrocellulose membrane has negative load, PL was used to check positive load to fungus, and consequently have bond to membrane.
As provided in FIG. 11, it was initially diluted in 5 μg/ml of PL at 10^7 cell/ml concentration and diluted in base 10. In this trial, it was evidenced that AcM HC6/DD11 was capable to bond to C. albicans up to 10^4 cell/ml order, which counters C. neoformans, that was identified to 10^6 cell/ml order. 3 independent experiments were performed to each trial. Example 16.7—Immunofluorescence

For a further assay, the system named is C. neoformans. As to the kind of experiment: Melanization trial (L-DOPA). Type of assay: cell-based, Cryptococcus neoformans. To be noted: concentrations lower than 6.2 μg/ml; p>0.05. As to the method: C. neoformans cultivation was performed as paragraph and cellular suspension (1×10^6 cells/ml) was cultivated for 72 hours in minimum media supplemented with 1 mM of L-DOPA in 96-well plate of U-shape bottom. Antibodies HC6/DD11 and AF1/CC5 were added to minimum media within 25 to 0.05 μg/ml concentration range. The plate was centrifuged and pigment development quantification was defined densitometrically upon image scanning by iBright FL1000 Invitrogen equipment.
AcM HC6/DD11 e AF1/CC5 established concentrations were 0.2 to 25 μg/ml. L-DOPA was used with substrate to melanization.
Pigmentation in C. neoformans was assessed through brown to black sedimentation observation in 96-well plate bottom. To document pigmentation or inhibition, plates were photographed over white surfaces (clear bottom), to enable differentiation between pigmented and non-pigmented populations. It shall be noted that every AcM dose presents fungal growth, however with negative pigmentation or partial inhibition.

The subject of a further assay is C. albicans. As to the kind of experiment: Biofilm development, XTT reduction trial. Type of assay: cell-based, Candida albicans. Conditions: AcM 25 μg/ml, 48 hours at 37° C., vs fungus without treatment, p<0.05. The procedure: C. neoformans (H99 and Cap67) and Candida albicans were cultivated in Sabouraud media for 24 hours at 30° C. Cellular suspensions were centrifuged for 5 minutes at 3000 g, washed 3 times in PBC and suspended in minimum media (20 mg/ml thiamin, 30 mm glucose, 26 mM glycine, 20 mM MgSO4, and 58.8 mM KH2PO4). Then, they were added to 96-well plates (100 μl/well—1×10^6 células/ml) and cultivated for 48 hours at 37° C. at presence of AcM (HC6/DD11 and AF1/CC5) and AcM anti-GXM 18B7 (only to H99) at 25 μg/ml concentration, keeping under agitation for 30 minutes, for AcM total homogenization with fungi. As control, drug AmB was used at 1 μg/ml concentration.
Two analysis systems were performed: in the first, cells were washed, so that non-adhering cells were removed and only cells bonded to biofilm under development remained; in the second system, cells were not washed and all cells adhered or not to substrate were quantified.
Viable cell metabolic activity in both trials was assessed by the method based on decrease of XTT (2-methoxy-4-nitro-5-sulfophenyl)-5-[(phenylamino) carbonyl]-2H-tetrazolium hydroxide) in spectrophotometer at 492 nm of wavelength.
AcMs were tested (25 μg/ml) against three fungus species (C. albicans, C. neoformans—H99—and acapsular mutant of C. neoformans—Cap67), with control by AcM anti-GXM 18B7 (25 μg/ml) only to H99. In the first assay (FIGS. 14A and B), cellular suspensions were washed to remove non-adhering cells to substrate. […] In second assay (FIGS. 14C and D), cellular suspensions were not washed, and again AcM inhibited biofilm development (p<0.05) compared to cell not treated with antibodies. In both assays, cell growth was observed.
In general terms: Formazan colour is commonly taken as a measure of viable cells.

B1: HC6/DD11: murine IgM monoclonal antibody against chitooligomers (chitotriose); VH SEQ ID NO: 15, VL SEQ ID NO: 16 (antibody, listed as Mus musculus, V domains shown)
VH: STGQVKLEESGGGLVQPGGSRKLSCAASGFTFSDYGMAWVRQAPGKGPEWVAFISNLAYSIYYADTVTGRFTISRENAKNTLYLEMSSLRSEDTAMYYCARDYYGSSYWYFDVWGAGTTVTAPC
VL: ATNSCISRGEVTITCSASSSVSYMHWFQQKPGTSPKLWIYSTSNLASGVPARFSGSGSGTSYSLTISRMEAEDAATYYCQQRSSYPLTFGAGTKLELKRADAAPTVSLET
For the molecule B1, the “ELISA signal in cell saturation curve” value with C. neoformans (H99) [1] is on record as “slightly more sensitive”. Further, the “cell density down to which fungus was identified (Dot Blot)” value in the assay with C. neoformans (H99) [2] is 10^6 cell/ml. Besides, the “melanization in lower concentrations” value in the assay on C. neoformans was “not significant inhibition”. Besides, the “biofilm development (XTT reduction)” value in the assay on C. albicans (non-washed cells) and in the assay on C. albicans (washed cells) was “reduced biofilm development significantly” each time.
